Measurements from the supplement of paper PMC7125110.
± gives the standard error. For part of these data: Variants at the floor of the assay were thinned out.

B1: glmS ribozyme (parent)
chain: AUAAAAGCGCCAGAACUACAGAAAUGUAGUUGACGAGGAGGAGGUUUAUCGAAUUUUCGGCGGAUGCCUCCAAA

Key:
Conditions in all cases: with glucosamine-6-phosphate
[1] = variants of: B1; assay: kcat; higher = faster cleavage; RNA array
Method in brief: (§1)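 Glucosamine-6-phosphate in HEPES/KCl/Mg(OAc)2 buffer, at 40 μM to 10 mM, was flowed over barcoded ribozyme variants transcribed in situ by E. coli RNA polymerase on sequenced MiSeq chips. Tracking was through a hybridised Cy3 probe at 37 °C. kobs, kcat and KM came from exponential decay fits and weighted Michaelis–Menten fits of normalised per-tile medians.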

[2] = variants of: B1; assay: self-cleavage kobs at 2500 uM GlcN6P; higher = faster cleavage; RNA array
Method in brief: as §1

[3] = variants of: B1; assay: self-cleavage kobs at 10000 uM GlcN6P; higher = faster cleavage; RNA array
Method in brief: as §1

[4] = variants of: B1; assay: self-cleavage kobs at 160 uM GlcN6P; higher = faster cleavage; RNA array
Method in brief: as §1

[5] = variants of: B1; assay: KM; higher = weaker cofactor use; RNA array
Method in brief: as §1

[6] = variants of: B1; assay: self-cleavage kobs at 640 uM GlcN6P; higher = faster cleavage; RNA array
Method in brief: as §1

[7] = variants of: B1; assay: self-cleavage kobs at 40 uM GlcN6P; higher = faster cleavage; RNA array
Method in brief: as §1

Variant	kcat [1] [s⁻¹]	self-cleavage kobs at 2500 uM GlcN6P [2] [s⁻¹]	self-cleavage kobs at 10000 uM GlcN6P [3] [s⁻¹]	self-cleavage kobs at 160 uM GlcN6P [4] [s⁻¹]	KM [5] [µM]	self-cleavage kobs at 640 uM GlcN6P [6] [s⁻¹]	self-cleavage kobs at 40 uM GlcN6P [7] [s⁻¹]
C11A A39U	0.000122 ± 2.3e-05	7e-05 ± 9.6e-06	9.43e-05 ± 1.2e-05	–	–	–	–
A12U C61A G63C C70U	3.89e-05 ± 1.1e-05	4.79e-05 ± 1.7e-05	–	3.45e-05 ± 1.3e-05	–	–	–
A36C G66U	< 1e-05	–	–	–	–	–	–
G13A A64G	0.0011 ± 0.0002	0.000246 ± 5e-05	0.000665 ± 6.7e-05	–	6920 ± 2200	0.000113 ± 2.2e-05	–
G40U G66C	0.000542 ± 7.3e-05	–	0.00046 ± 6.4e-05	–	2060 ± 890	–	–
G29U U54C	0.00486 ± 0.0013	0.00249 ± 0.00049	0.00596 ± 0.0013	0.000421 ± 6.8e-05	1540 ± 590	0.00146 ± 0.00023	0.000157 ± 3.1e-05
A12C A52U	0.000397 ± 5.1e-05	0.000188 ± 1.7e-05	0.000329 ± 3.4e-05	–	2490 ± 570	8.66e-05 ± 8.4e-06	–
G44C C67U	0.00192 ± 0.00015	0.00109 ± 0.00024	0.00168 ± 0.0003	0.000153 ± 3.2e-05	1700 ± 200	0.000532 ± 0.00011	5.1e-05 ± 1.3e-05
A15G C16A C70U	0.000398 ± 6.7e-05	0.000315 ± 6.5e-05	–	6.78e-05 ± 2.4e-05	804 ± 260	0.000168 ± 2.9e-05	–
U49G A53C	0.000546 ± 0.00023	0.000369 ± 6.4e-05	0.000368 ± 8.5e-05	–	–	7.82e-05 ± 2.4e-05	–
G40C C70U C71G	0.00208 ± 0.00091	0.00208 ± 0.00051	0.00243 ± 0.00039	0.000296 ± 8.3e-05	–	0.000624 ± 0.00016	0.000192 ± 2.7e-05
U46G A48G	7.99e-05 ± 1e-06	5.4e-05 ± 1.2e-05	7.08e-05 ± 1e-05	–	1250 ± 69	–	< 1e-05
U30C G62U	< 1e-05	–	< 1e-05	< 1e-05	–	–	–
U46C C70G	0.000447 ± 0.00013	0.000453 ± 6.5e-05	0.000346 ± 5.5e-05	3.81e-05 ± 1.5e-05	–	0.000178 ± 2.9e-05	6.28e-05 ± 2.3e-05
A6G A15G	0.000647 ± 5.3e-05	0.000324 ± 4.3e-05	0.000514 ± 5.4e-05	3.49e-05 ± 1.1e-05	2540 ± 370	0.000131 ± 1.7e-05	–
G29A U47A	0.00354 ± 0.0016	0.00153 ± 0.00024	0.00308 ± 0.00042	0.000152 ± 2.6e-05	–	0.000727 ± 0.00012	0.000101 ± 1.2e-05
